The source of these data is patent US20250277054A1.

Assay [1] concerns the target Biotinylated Human PSMA/FOLH1 Protein, His, Avitag (human) (UniProt Q04609). Nature of the assay: SPR (Biacore 8K), biotinylated human PSMA captured on streptavidin chip, antibody injected, single-cycle, 1:1 model. (In SPR one partner is held on a chip, and binding of the other changes the refractive index at the surface.)
In assay [2] the target is Cyno PSMA.ECD.His (Acro) (cynomolgus). Nature of the assay: ELISA, coated cynomolgus PSMA protein (His tag). In general terms: An ELISA detects its analyte on a solid surface through an enzyme-linked reagent.
For assay [3], the target named is human PSMA on human prostate cancer cells (LNCaP, C4-2, 22Rv1) (human) (UniProt Q04609). Kind of assay: flow cytometry on 22Rv1 cells (PSMA low).
Sequence of human PSMA on human prostate cancer cells (LNCaP, C4-2, 22Rv1) (human) (Q04609 whole entry, the tested form may be a part): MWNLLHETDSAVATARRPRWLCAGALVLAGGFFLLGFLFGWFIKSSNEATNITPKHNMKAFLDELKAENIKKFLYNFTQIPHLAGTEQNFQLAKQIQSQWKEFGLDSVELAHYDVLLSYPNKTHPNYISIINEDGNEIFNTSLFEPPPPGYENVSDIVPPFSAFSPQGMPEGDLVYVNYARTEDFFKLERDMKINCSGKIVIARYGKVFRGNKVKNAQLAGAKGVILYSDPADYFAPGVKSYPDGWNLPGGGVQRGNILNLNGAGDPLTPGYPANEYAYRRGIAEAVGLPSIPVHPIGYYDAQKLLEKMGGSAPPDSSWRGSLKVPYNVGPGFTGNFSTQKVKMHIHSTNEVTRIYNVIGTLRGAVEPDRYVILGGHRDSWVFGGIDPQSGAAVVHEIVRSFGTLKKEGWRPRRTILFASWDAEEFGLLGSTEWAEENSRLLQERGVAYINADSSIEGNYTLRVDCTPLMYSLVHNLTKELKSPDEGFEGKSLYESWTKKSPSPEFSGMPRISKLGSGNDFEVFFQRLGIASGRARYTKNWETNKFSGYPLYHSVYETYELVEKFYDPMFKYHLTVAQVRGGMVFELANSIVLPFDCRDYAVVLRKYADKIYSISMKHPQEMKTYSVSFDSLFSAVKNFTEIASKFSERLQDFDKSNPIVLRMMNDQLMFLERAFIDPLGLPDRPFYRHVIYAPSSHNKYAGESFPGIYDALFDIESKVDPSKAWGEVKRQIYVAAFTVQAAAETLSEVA
Assay [4] has as its target Human PSMA.ECD.His (Acro) (human) (UniProt Q04609). Kind of assay: ELISA, coated human PSMA protein (His tag).
Assay [5] addresses human PSMA on human prostate cancer cells (LNCaP, C4-2, 22Rv1) (human) (UniProt Q04609). Nature of the assay: flow cytometry on C4-2 cells (PSMA high).
For assay [6], the target named is full-length cynomolgus PSMA on Flp-in CHO cells (WBP3xx042-FlpinCHO.cPro1.B7) (cynomolgus). Nature of the assay: flow cytometry on FlpInCHO-cyno PSMA cells. In general terms: Flow cytometry measures light scatter and fluorescence of single cells or particles in a stream.
Assay [7] deals with human PSMA on human prostate cancer cells (LNCaP, C4-2, 22Rv1) (human) (UniProt Q04609). Kind of assay: flow cytometry on LNCaP cells (PSMA high).
The target of assay [8] is Mouse PSMA.ECD.His (Acro) (mouse) (UniProt O35409). Kind of assay: ELISA, coated mouse PSMA protein (His tag).
Sequence of Mouse PSMA.ECD.His (Acro) (mouse) (O35409 45-752): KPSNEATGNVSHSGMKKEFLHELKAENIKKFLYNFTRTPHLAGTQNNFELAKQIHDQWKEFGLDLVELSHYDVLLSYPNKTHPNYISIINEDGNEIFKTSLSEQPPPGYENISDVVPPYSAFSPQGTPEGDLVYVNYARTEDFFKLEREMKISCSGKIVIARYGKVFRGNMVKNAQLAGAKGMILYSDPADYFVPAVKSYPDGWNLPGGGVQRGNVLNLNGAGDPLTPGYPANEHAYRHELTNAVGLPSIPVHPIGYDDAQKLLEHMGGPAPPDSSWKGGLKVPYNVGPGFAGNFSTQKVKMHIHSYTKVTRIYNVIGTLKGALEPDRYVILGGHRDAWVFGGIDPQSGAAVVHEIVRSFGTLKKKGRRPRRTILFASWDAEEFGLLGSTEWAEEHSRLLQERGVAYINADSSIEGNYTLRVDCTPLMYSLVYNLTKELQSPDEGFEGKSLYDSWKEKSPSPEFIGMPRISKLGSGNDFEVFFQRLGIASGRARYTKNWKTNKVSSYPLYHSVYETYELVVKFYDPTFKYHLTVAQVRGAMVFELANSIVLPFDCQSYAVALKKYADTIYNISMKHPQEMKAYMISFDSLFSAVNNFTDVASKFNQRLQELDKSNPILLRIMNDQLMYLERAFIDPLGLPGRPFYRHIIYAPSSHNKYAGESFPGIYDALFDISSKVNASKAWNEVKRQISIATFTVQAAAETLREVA
The target in assay [9] is Human PSMA.ECD.His (Acro) (human) (UniProt Q04609). Kind of assay: ELISA, human PSMA ECD captured by anti-His antibody.
Sequence of Human PSMA.ECD.His (Acro) (human) (Q04609 44-750): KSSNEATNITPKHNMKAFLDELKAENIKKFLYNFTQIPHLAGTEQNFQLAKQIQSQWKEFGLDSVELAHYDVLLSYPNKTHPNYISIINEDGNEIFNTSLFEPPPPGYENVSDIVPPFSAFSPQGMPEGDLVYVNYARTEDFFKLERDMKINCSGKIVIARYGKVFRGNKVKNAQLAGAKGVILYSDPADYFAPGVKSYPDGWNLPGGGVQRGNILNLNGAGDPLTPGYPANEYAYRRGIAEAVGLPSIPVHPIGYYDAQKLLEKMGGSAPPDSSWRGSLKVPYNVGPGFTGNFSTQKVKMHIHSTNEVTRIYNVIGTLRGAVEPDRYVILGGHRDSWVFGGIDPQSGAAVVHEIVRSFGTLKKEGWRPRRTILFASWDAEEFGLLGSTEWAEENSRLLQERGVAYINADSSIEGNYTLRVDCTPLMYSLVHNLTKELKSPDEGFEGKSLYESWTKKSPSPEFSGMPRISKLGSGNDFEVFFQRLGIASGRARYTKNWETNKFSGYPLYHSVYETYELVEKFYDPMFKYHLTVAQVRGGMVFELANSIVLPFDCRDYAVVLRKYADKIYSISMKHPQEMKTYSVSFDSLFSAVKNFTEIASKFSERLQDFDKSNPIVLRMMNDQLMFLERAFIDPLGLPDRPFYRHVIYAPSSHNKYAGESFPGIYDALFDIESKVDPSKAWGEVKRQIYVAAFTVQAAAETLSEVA
In assay [10] the target is human PSMA on human prostate cancer cells (LNCaP, C4-2, 22Rv1) (human) (UniProt Q04609). Nature of the assay: flow cytometry on LNCaP cells.
For assay [11], the target named is Human PSMA.ECD.His (Acro) (human) (UniProt Q04609). Kind of assay: SPR (Biacore 8K), antibody captured by anti-human IgG Fc, PSMA injected, 1:1 model.
Assay [12] addresses Cyno PSMA.ECD.His (Acro) (cynomolgus). The description is as above.
Assay [13] concerns the target full-length cynomolgus PSMA on Flp-in CHO cells (WBP3xx042-FlpinCHO.cPro1.B7) (cynomolgus). Kind of assay: flow cytometry on cynomolgus PSMA-expressing CHO cells.
Assay [14] has as its target Cyno PSMA.ECD.His (Acro) (cynomolgus). Kind of assay: ELISA, cynomolgus PSMA ECD captured by anti-His antibody.

Sequence of Biotinylated Human PSMA/FOLH1 Protein, His, Avitag (human) (Q04609 44-750 limits assumed): as the sequence (Q04609 44-750) above

AMG 160 (BMK2) (bispecific antibody) displayed a Kd in assay [1] of 36.7 nM. Moreover, the EC50 worked out at 0.48 nM in assay [2]; 46.1 nM in assay [3]; 0.22 nM in assay [4]; 34.4 nM in [5]; 55.8 nM in [6]; 30.8 nM in assay [7]. Further, the values for the Max OD450-540 in assay [2], in [4] and in [8] were 3.57 OD450-540, 3.52 OD450-540 and 0.09 OD450-540, respectively. The Max MFI stood at 5910 MFI in assay [3], 34200 MFI in assay [5], 62900 MFI in assay [6] and 19100 MFI in assay [7].
Regarding “AMG 340/TNB-585 (BMK1) (bispecific antibody)”, in assay [1], the Kd was determined as 32.3 nM. Moreover, in assay [1], the koff was determined as 0.00378 s⁻¹. Besides, the kon in assay [1] came to 117000 M⁻¹ s⁻¹. Further, the results for the EC50 in assay [3], in assay [5] and in assay [7] were 174 nM, 35.3 nM and 55.7 nM, respectively. The Max MFI in [3] amounted to 5280 MFI; in assay [5] it was 34700 MFI; in assay [6], 2870 MFI; in assay [7], 16300 MFI. In assay [8], the Max OD450-540 was found to be 0.05 OD450-540.
As to J591 antibody (W3XX042-BMK1), the EC50 in assay [9] was 0.077 nM; in assay [10] it was 0.48 nM; in [13], 3.63 nM; in [14], 0.011 nM. Further, the values for the Max OD450 in assay [9] and in assay [14] were 2.34 OD450 and 2.79 OD450, respectively. Moreover, the Max MFI in [10] was 3590 MFI; in assay [13], 93300 MFI. The Kd in assay [11] was determined as 1.27 nM; in assay [12] it was 1.82 nM. Also, the koff in assay [12] came to 0.000192 s⁻¹.
With “human IgG isotype antibody (negative control)”, the Max OD450 in assay [9] was 0.263 OD450; in [8], 0.093 OD450; in assay [14], 0.258 OD450. Also, the Max MFI in assay [10] amounted to 47.7 MFI; in [13], 34.8 MFI. In addition, the concentration for a half-maximal effect (EC50) in assay [8] is greater than 100 nM; in [13], greater than 100 nM; in assay [14], greater than 10 nM.
With isotype hIgG4 control (antibody), the Max OD450-540 worked out at 0.04 OD450-540 in assay [2], 0.04 OD450-540 in [4] and 0.09 OD450-540 in assay [8]. For the same substance, the Max MFI in assay [3] worked out at 372 MFI; in [5], 138 MFI; in assay [6] it was 19.9 MFI; in assay [7], 181 MFI.

The Kd is the free concentration of one partner at which half of the binding sites on the other are occupied at equilibrium, for simple one-to-one binding. A high value points to weaker binding. By EC50 is commonly meant the midpoint of the concentration-response curve. High values mean weaker potency, low ones greater potency. The term koff denotes the first-order rate constant of dissociation. A high value points to a short-lived complex. What is called kon is a measure of how fast the partners come together.
